From publication PMC11328874 (2024) come the findings set out here.

The chains are these.
B1: HA-tagged B55α (HA-B55α), wild type [human] / FLAG-Eya3 (human), wild type [human] (parent complex)
chain 1: MAGAGGGNDIQWCFSQVKGAVDDDVAEADIISTVEFNHSGELLATGDKGGRVVIFQQEQENKIQSHSRGEYNVYSTFQSHEPEFDYLKSLEIEEKINKIRWLPQKNAAQFLLSTNDKTIKLWKISERDKRPEGYNLKEEDGRYRDPTTVTTLRVPVFRPMDLMVEASPRRIFANAHTYHINSISINSDYETYLSADDLRINLWHLEITDRSFNIVDIKPANMEELTEVITAAEFHPNSCNTFVYSSSKGTIRLCDMRASALCDRHSKLFEEPEDPSNRSFFSEIISSISDVKFSHSGRYMMTRDYLSVKIWDLNMENRPVETYQVHEYLRSKLCSLYENDCIFDKFECCWNGSDSVVMTGSYNNFFRMFDRNTKRDITLEASRENNKPRTVLKPRKVCASGKRKKDEISVDSLDFNKKILHTAWHPKENIIAVATTNNLYIFQDKVN
chain 2: MEEEQDLPEQPVKKAKMQESGEQTISQVSNPDVSDQKPETSSLASNLPMSEEIMTCTDYIPRSSNDYTSQMYSAKPYAHILSVPVSETAYPGQTQYQTLQQTQPYAVYPQATQTYGLPPFGALWPGMKPESGLIQTPSPSQHSVLTCTTGLTTSQPSPAHYSYPIQASSTNASLISTSSTIANIPAAAVASISNQDYPTYTILGQNQYQACYPSSSFGVTGQTNSDAESTTLAATTYQSEKPSVMAPAPAAQRLSSGDPSTSPSLSQTTPSKDTDDQSRKNMTSKNRGKRKADATSSQDSELERVFLWDLDETIIIFHSLLTGSYAQKYGKDPTVVIGSGLTMEEMIFEVADTHLFFNDLEECDQVHVEDVASDDNGQDLSNYSFSTDGFSGSGGSGSHGSSVGVQGGVDWMRKLAFRYRKVREIYDKHKSNVGGLLSPQRKEALQRLRAEIEVLTDSWLGTALKSLLLIQSRKNCVNVLITTTQLVPALAKVLLYGLGEIFPIENIYSATKIGKESCFERIVSRFGKKVTYVVIGDGRDEEIAAKQHNMPFWRITNHGDLVSLHQALELDFL

The variants in the experiment derive from B1. Briefly: FLAG co-IP followed by Western blot, band quantification; cotransfected HEK cells; three biological replicates; parent: 1; read off a plot. (In general: In western blotting, separated proteins are transferred to a membrane and probed.)
Take chain 1 MAGAGGGNDIQWCFSQVKGAVDDDVAEADIISTVEFNHSGELLATGDKGGRVVIFQQEQENKIQSHSRGEYNVYSTFQSHEPEFDYLKSLEIEEKINKIRWLPQKNAAQFLLSTNDKTIKLWKISERDKRPEGYNLKEEDGRYRDPTTVTTLRVPVFRPMDLMVEASPRRIFANAHTYHINSISINSDYETYLSADKLRINLWHLEITDRSFNIVDIKPANMEELTEVITAAEFHPNSCNTFVYSSSKGTIRLCDMRASALCDRHSKLFEEPEDPSNRSFFSEIISSISDVKFSHSGRYMMTRDYLSVKIWDLNMENRPVETYQVHEYLRSKLCSLYENDCIFDKFECCWNGSDSVVMTGSYNNFFRMFDRNTKRDITLEASRENNKPRTVLKPRKVCASGKRKKDEISVDSLDFNKKILHTAWHPKENIIAVATTNNLYIFQDKVN [chain 1 D197K]: the ratio to parent is roughly 0.58.

Take chain 1 MAGAGGGNDIQWCFSQVKGAVDDDVAEADIISTVEFNHSGELLATGDKGGRVVIFQQEQENKIQSHSRGEYNVYSTFQSHEPEFDYLKSLEIAAAINKIRWLPQKNAAQFLLSTNDKTIKLWKISERDKRPEGYNLKEEDGRYRDPTTVTTLRVPVFRPMDLMVEASPRRIFANAHTYHINSISINSDYETYLSADDLRINLWHLEITDRSFNIVDIKPANMEELTEVITAAEFHPNSCNTFVYSSSKGTIRLCDMRASALCDRHSKLFEEPEDPSNRSFFSEIISSISDVKFSHSGRYMMTRDYLSVKIWDLNMENRPVETYQVHEYLRSKLCSLYENDCIFDKFECCWNGSDSVVMTGSYNNFFRMFDRNTKRDITLEASRENNKPRTVLKPRKVCASGKRKKDEISVDSLDFNKKILHTAWHPKENIIAVATTNNLYIFQDKVN [chain 1 E93A, chain 1 E94A, chain 1 K95A]: the ratio to parent was roughly 0.4. As to chain 1 MAGAGGGNDIQWCFSQVKGAVDDDVARADIISTVEFNHSGELLATGDKGGRVVIFQQEQENKIQSHSRGEYNVYSTFQSHEPEFDYLKSLEIEEKINKIRWLPQKNAAQFLLSTNDKTIKLWKISERDKRPEGYNLKEEDGRYRDPTTVTTLRVPVFRPMDLMVEASPRRIFANAHTYHINSISINSDYETYLSADDLRINLWHLEITDRSFNIVDIKPANMEELTEVITAAEFHPNSCNTFVYSSSKGTIRLCDMRASALCDRHSKLFEEPEDPSNRSFFSEIISSISDVKFSHSGRYMMTRDYLSVKIWDLNMENRPVETYQVHEYLRSKLCSLYENDCIFDKFECCWNGSDSVVMTGSYNNFFRMFDRNTKRDITLEASRENNKPRTVLKPRKVCASGKRKKDEISVDSLDFNKKILHTAWHPKENIIAVATTNNLYIFQDKVN [chain 1 E27R], the ratio to parent is roughly 1.2. In the case of chain 1 MAGAGGGNDIQWCFSQVKGAVDDDVAEADIISTVEFNHSGELLATGDKGGRVVIFQQEQENKIQSHSRGEYNVYSTFQSHEPEFDYLKSLEIEEKINKIRWLPQKNAAQFLLSTNDKTIKLWKISERDKRPEGYNLKEEDGRYRDPTTVTTLRVPVFRPMDLMVEASPRRIFANAHTAAINSISINSDYETYLSADDLRINLWHLEITDRSFNIVDIKPANMEELTEVITAAEFHPNSCNTFVYSSSKGTIRLCDMRASALCDRHSKLFEEPEDPSNRSFFSEIISSISDVKFSHSGRYMMTRDYLSVKIWDLNMENRPVETYQVHEYLRSKLCSLYENDCIFDKFECCWNGSDSVVMTGSYNNFFRMFDRNTKRDITLEASRENNKPRTVLKPRKVCASGKRKKDEISVDSLDFNKKILHTAWHPKENIIAVATTNNLYIFQDKVN [chain 1 Y178A, chain 1 H179A], the ratio to parent is roughly 0.28.

On to chain 1 MAGAGGGNDIQWCFSQVKGAVDDDVAEADIISTVEFNHSGELLATGDEGGRVVIFQQEQENKIQSHSRGEYNVYSTFQSHEPEFDYLKSLEIEEKINKIRWLPQKNAAQFLLSTNDKTIKLWKISERDKRPEGYNLKEEDGRYRDPTTVTTLRVPVFRPMDLMVEASPRRIFANAHTYHINSISINSDYETYLSADDLRINLWHLEITDRSFNIVDIKPANMEELTEVITAAEFHPNSCNTFVYSSSKGTIRLCDMRASALCDRHSKLFEEPEDPSNRSFFSEIISSISDVKFSHSGRYMMTRDYLSVKIWDLNMENRPVETYQVHEYLRSKLCSLYENDCIFDKFECCWNGSDSVVMTGSYNNFFRMFDRNTKRDITLEASRENNKPRTVLKPRKVCASGKRKKDEISVDSLDFNKKILHTAWHPKENIIAVATTNNLYIFQDKVN [chain 1 K48E], for which the ratio to parent was roughly 1.1.

On to chain 1 MAGAGGGNDIQWCFSQVKGAVDDDVAEADIISTVEFNHSGELLATGDKGGRVVIFQQEQENKIQSHSRGEYNVYSTFQSHEPEFDYLKSLEIEEKINKIRWLPQKNAAQFLLSTNDKTIKLWKISERDKRPEGYNLKEEDGRYRDPTTVTTLRVPVFRPMDLMVEASPRRIFANAHTYHINSISINSDYETYLSADDLRINLWHLEITDRSFNIVDIKPANMEELTEVITAAEFHPNSCNTFVYSSSKGTIRLCDMRASALCDRHSKLFEEPEDPSNRSFFSEIISSISDVKFSHSGRYMMTRDYLSVKIWDLNMENRPVETYQVHEYLRSKLCSLYENDCIFDEFECCWNGSDSVVMTGSYNNFFRMFDRNTKRDITLEASRENNKPRTVLKPRKVCASGKRKKDEISVDSLDFNKKILHTAWHPKENIIAVATTNNLYIFQDKVN [chain 1 K345E], for which the ratio to parent is roughly 0.36.
